Assay results from publication PMC3741163, “CCL18 Exhibits a Regulatory Role through Inhibition of Receptor and Glycosaminoglycan Binding” (PLoS ONE, 2013).
Several values for one entry are separate records, joined by “and”; a condition that tells them apart may be missing. Equal values may be shown once.

T1: CCR3 (UniProt P51677 1-355)
T1 construct: chemokine receptor CCR3 expressed on L1.2 transfectants; also called L1.2/CCR3 transfectants; source: L1.2 transfectants, on cells
T1 sequence (looked up): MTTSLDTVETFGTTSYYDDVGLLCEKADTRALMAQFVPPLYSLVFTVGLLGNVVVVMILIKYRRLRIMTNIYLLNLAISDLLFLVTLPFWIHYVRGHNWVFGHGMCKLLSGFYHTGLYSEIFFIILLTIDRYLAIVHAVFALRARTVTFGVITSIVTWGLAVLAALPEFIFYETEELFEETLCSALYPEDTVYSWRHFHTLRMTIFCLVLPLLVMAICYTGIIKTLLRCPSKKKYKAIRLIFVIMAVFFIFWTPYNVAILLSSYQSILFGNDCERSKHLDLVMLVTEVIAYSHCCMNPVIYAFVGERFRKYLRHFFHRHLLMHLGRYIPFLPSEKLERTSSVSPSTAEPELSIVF


Experiments:
CCR3 [1] = molecular target: T1, CCR3; assay: radioligand binding; equilibrium competition on L1.2/CCR3 transfectants, tracer 0.1 nM 125I-CCL11, 0.1 x10^6 cells/well, competitor 10^-6 to 10^-12 M, room temperature 4 h, filtration; conditions: one partner purified
CCR3 [2] = molecular target: T1, CCR3; assay: cell-based or functional assay
CCR3 [3] = molecular target: T1, CCR3; assay: cell-based or functional assay; remark: listed apart in the source
CCR3 [4] = molecular target: T1, CCR3; assay: radioligand binding; equilibrium competition on L1.2/CCR3 transfectants, tracer 0.1 nM 125I-CCL18, 0.1 x10^6 cells/well, competitor 10^-6 to 10^-12 M, room temperature 4 h, filtration; conditions: one partner purified

| IC50 (CCR3 [1]) | EC50 of CCL11-induced Ca2+ release in L1.2/CCR3 transfectants in the presence of 0 nM to 5 µM CCL18 (EC50 69.93 nM without CCL18, rising with the concentration) (CCR3 [2]) [µM] | IC50 of CCL18 for inhibition of chemotaxis of L1.2/CCR3 transfectants to 1 nM CCL11 (experiment shown in Figure 1A) (CCR3 [2]) [nM] | IC50 of CCL18 for inhibition of chemotaxis of L1.2/CCR3 transfectants to 1 nM CCL11 (mean of 7) (CCR3 [3]) [nM] | IC50 of CCL18 for inhibition of chemotaxis of L1.2/CCR3 transfectants to 10 nM CCL5 (CCR3 [3]) [nM] | IC50 of CCL18 for inhibition of chemotaxis of L1.2/CCR3 transfectants to 10 nM CCL26 (CCR3 [3]) [nM] | IC50 of CCL18 for inhibition of chemotaxis of L1.2/CCR3 transfectants to 100 nM CCL15 (CCR3 [3]) [nM] | IC50 (CCR3 [4]) | Binder |
| --- | --- | --- | --- | --- | --- | --- | --- | --- |
| 7.4 nM and 13.2 nM | – | – | – | – | – | – | – | CCL11 (ligand, CCL11 chemokine, unlabelled; source: purchased from PeptroTech or produced as previously described [30]) not shown |
| – | 10.5 | 397 | 318 | 40.8 | 123 | 2.9 | 6.8 nM and 8.86 nM | CCL18 (ligand, human, UniProt P55774 21-89, looked up, CCL18 chemokine, unlabelled; also called PARC; MIP-4; source: purchased from PeptroTech or produced as previously described [30]) AQVGTNKELCCLVYTSWQIPQKFIVDYSETSPQCPKPGVILLTKRGRQICADPNKKWVQKYISDLKLNA |
